According to PMC10392983, “Allosteric activation or inhibition of PI3Kγ mediated through conformational changes in the p110γ helical domain” (eLife, 2023):
Where “and” joins values, the source holds several entries; their conditions need not be identical. Identical values can stand only once.

Key:
Conditions in all cases: both partners purified
[1] = target: T1, p110γ-p84 complex (Homo sapiens p110γ; Mus musculus p84, UniProt P48736;Q3U6Q4); assay: BLI; His-tagged NB7 (500 nM) immobilised on Anti-Penta-His biosensor; PI3K complexes in solution (dose response 50-1.9 nM; class IA comparison at 50 nM); 600 s association, 1200 s dissociation; 20 mM Tris pH 8.5, 100 mM NaCl, 50 mM ammonium sulfate, 0.1% BSA, 0.02% Tween 20; global fit to a 1:1 model
T1 construct: Homo sapiens p110γ (PIK3CG), full-length; Mus musculus p84 regulatory subunit of PI3Kγ; The purification tag stood on p84 only; also called PI3Kγ p110γ-p84; not shown: His10, N-terminal, cleaved; 2x Strep, N-terminal, cleaved
T1 sequence (P48736 whole entry, chain 1 of 2): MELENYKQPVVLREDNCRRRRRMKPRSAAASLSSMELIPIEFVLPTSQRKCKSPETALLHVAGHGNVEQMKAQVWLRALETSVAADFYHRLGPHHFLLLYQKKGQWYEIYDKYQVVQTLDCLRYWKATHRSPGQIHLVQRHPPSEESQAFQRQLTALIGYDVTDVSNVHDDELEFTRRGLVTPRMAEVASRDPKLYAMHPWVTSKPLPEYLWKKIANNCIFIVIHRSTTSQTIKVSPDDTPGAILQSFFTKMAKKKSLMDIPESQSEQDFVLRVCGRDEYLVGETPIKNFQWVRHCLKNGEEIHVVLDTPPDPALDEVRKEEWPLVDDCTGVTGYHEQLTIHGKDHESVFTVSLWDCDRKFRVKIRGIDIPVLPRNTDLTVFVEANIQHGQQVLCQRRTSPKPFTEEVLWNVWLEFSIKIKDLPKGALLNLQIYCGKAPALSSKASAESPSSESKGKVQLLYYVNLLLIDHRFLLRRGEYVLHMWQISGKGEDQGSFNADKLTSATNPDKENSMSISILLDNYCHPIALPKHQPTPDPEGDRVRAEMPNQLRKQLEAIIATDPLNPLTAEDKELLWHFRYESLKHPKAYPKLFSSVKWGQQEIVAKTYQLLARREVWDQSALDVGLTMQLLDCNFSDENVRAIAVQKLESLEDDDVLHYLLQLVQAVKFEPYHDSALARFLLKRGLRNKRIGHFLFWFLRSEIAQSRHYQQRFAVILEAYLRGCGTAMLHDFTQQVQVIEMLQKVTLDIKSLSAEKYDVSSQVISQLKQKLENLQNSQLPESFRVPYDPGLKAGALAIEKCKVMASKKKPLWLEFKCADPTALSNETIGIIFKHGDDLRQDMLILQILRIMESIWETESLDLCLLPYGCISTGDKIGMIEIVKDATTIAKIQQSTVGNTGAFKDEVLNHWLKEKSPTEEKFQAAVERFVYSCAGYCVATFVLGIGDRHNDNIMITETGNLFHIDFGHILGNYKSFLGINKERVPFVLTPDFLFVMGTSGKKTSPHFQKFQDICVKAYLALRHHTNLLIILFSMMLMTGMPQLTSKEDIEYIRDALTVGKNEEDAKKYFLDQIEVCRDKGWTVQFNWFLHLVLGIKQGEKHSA
T1 sequence (Q3U6Q4 whole entry, chain 2 of 2): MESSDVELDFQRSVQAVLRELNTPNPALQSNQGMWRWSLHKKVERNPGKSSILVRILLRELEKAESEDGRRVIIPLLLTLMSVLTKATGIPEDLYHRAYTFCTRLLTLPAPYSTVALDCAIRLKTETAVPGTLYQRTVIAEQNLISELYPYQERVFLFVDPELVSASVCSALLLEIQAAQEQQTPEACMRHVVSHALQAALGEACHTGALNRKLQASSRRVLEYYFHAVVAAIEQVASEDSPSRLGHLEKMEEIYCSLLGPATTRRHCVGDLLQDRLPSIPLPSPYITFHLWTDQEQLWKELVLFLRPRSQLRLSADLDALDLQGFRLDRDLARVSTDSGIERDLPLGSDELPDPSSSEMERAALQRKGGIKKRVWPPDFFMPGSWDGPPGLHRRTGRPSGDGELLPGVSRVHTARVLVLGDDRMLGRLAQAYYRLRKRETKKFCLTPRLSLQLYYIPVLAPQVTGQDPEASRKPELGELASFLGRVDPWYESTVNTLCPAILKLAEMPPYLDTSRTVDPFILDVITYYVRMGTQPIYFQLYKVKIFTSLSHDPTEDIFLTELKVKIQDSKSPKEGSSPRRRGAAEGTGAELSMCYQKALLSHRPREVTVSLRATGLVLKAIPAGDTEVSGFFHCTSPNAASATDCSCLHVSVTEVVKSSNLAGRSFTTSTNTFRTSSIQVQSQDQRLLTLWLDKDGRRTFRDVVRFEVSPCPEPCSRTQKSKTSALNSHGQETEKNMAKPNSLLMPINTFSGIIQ

[2] = target: T2, p110γ-p101 complex (Homo sapiens p110γ; Sus scrofa p101, UniProt P48736;PDB); assay: as above
T2 construct: Homo sapiens p110γ (PIK3CG), full-length; Sus scrofa p101 regulatory subunit of PI3Kγ; The purification tag stood on p101 only; also called PI3Kγ p110γ-p101; not shown: His10, N-terminal, cleaved; 2x Strep, N-terminal, cleaved
T2 sequence (P48736 whole entry, chain 1 of 2): as the sequence (P48736 whole entry, chain 1 of 2) above
T2 sequence (O02696 whole entry, chain 2 of 2, further chain): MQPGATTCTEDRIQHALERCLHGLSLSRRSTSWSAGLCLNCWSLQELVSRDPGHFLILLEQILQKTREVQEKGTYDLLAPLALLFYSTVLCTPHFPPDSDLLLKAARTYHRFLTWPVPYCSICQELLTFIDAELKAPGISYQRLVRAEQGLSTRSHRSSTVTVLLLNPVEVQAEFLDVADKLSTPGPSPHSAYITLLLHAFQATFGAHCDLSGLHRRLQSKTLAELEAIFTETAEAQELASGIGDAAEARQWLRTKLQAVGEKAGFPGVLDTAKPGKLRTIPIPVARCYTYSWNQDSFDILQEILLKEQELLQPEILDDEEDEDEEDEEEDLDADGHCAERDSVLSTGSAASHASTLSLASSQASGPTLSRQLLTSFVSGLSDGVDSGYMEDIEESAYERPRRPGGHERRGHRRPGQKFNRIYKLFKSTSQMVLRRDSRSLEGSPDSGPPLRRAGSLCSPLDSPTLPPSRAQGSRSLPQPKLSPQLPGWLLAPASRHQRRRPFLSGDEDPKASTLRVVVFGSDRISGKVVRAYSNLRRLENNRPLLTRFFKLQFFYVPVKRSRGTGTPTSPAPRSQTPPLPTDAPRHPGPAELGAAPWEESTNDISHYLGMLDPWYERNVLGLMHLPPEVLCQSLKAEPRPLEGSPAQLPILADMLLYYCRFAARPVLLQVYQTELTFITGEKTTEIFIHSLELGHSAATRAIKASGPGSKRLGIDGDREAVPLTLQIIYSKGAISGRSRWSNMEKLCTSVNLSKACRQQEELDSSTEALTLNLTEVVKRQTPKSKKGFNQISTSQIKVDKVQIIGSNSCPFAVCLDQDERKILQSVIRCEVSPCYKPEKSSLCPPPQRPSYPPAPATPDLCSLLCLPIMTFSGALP

[3] = target: T3, p110β-p85 complex (Homo sapiens (assumed), UniProt P42338;O00459); assay: as above
T3 construct: p110β catalytic subunit of class IA PI3K; plasmid as previously described; p85 regulatory subunit; the legend says only p85; also called PI3Kβ

[4] = target: T4, p110α-p85 complex (Homo sapiens (assumed), UniProt P42336;O00459); assay: as above
T4 construct: p110α catalytic subunit of class IA PI3K; plasmid as previously described; p85 regulatory subunit; the legend says only p85; also called PI3Kα

[5] = target: T5, p110δ-p85 complex (Homo sapiens (assumed), UniProt O00329;O00459); assay: as above
T5 construct: p110δ catalytic subunit of class IA PI3K; plasmid as previously described; p85 regulatory subunit; the legend says only p85; also called PI3Kδ

[6] = target: T6, p110γ-p101 complex (Homo sapiens p110γ; Sus scrofa p101, UniProt P48736;PDB); assay: BLI; His-NB7 (500 nM) immobilised on Anti-Penta-His (HIS1K) biosensor, dipped into p110γ, p110γ-p84 or p110γ-p101 (50-1.9 nM); association 600 s, dissociation 1200 s; Octet buffer 20 mM Tris pH 8.5, 100 mM NaCl, 50 mM ammonium sulfate, 0.1% BSA, 0.02% Tween 20; 1:1 model; the sheet gives one set of constants for each analyte concentration (column Conc. (nM))
T6 construct: p110γ, Homo sapiens, from plasmid pMultiBac-hsp110γ-ssp101; p101 regulatory subunit, Sus scrofa, from plasmid pMultiBac-hsp110γ-ssp101; The purification tag stood on the N-terminus of p101 and was removed by TEV protease; also called p110gp101; not shown: 10x histidine, N-terminal, cleaved; 2x strep, N-terminal, cleaved
T6 sequence (P48736 whole entry, chain 1 of 2): as the sequence (P48736 whole entry, chain 1 of 2) above
T6 sequence (O02696 whole entry, chain 2 of 2, further chain): as the sequence (O02696 whole entry, chain 2 of 2, further chain) above

B1: Nanobody NB7-PIK3CG (VHH)
VHH: QVQLVESGGGLVQPGGSLRLSCAASGSIFSINAMGWYRQAPGKQRELVAHITSGGSTNYADSVKGRFTISRDNAKNTVYLQMNSLKPEDTAVYYCNEAGDPFLGSTWNGPPAFGSWGQGTQVTVSS
notes: the nanobody chain of PDB 8DP0 (deposited here); Expressed from a pMESy4 vector; also called His-NB7; nanobody 7; source: E. coli WK6 periplasm, purified (HisTrap, Superdex 75); not shown: His6, C-terminal, kept
- Kd [1]: ~2 nM
- Kd [2]: ~2 nM
- binding result [3]: no binding (tested: 50 nM)
- binding result [4]: no binding (tested: 50 nM)
- binding result [5]: no binding (tested: 50 nM)

B2: Nanobody NB7-PIK3CG (VHH)
VHH: QVQLVESGGGLVQPGGSLRLSCAASGSIFSINAMGWYRQAPGKQRELVAHITSGGSTNYADSVKGRFTISRDNAKNTVYLQMNSLKPEDTAVYYCNEAGDPFLGSTWNGPPAFGSWGQGTQVTVSS
notes: Expressed from a pMESy4 vector; first described in Rathinaswamy et al., 2021b; also called His-NB7; nanobody 7; source: periplasm of WK6 E. coli, purified (HisTrap, Superdex 75); not shown: His6, C-terminal, kept
- kon [6]: 105000 M⁻¹ s⁻¹ and 111000 M⁻¹ s⁻¹ and 50200 M⁻¹ s⁻¹
